Test results published in article PMC4670726 (2015).
Ends that are not written are not given here.

B1: JNK1 (as used in the fluorescence polarization titrations) (enzyme)
chain: MSRSKRDNNFYSVEIGDSTFTVLKRYQNLKPIGSGAQGIVCAAYDAILERNVAIKKLSRPFQNQTHAKRAYRELVLMKCVNHKNIIGLLNVFTPQKSLEEFQDVYIVMELMDANLCQVIQMELDHERMSYLLYQMLCGIKHLHSAGIIHRDLKPSNIVVKSDCTLKILDFGLARTAGTSFMMTPYVVTRYYRAPEVILGMGYKENVDLWSVGCIMGEMVCHKILFPGRDYIDQWNKVIEQLGTPCPEFMKKLQPTVRTYVENRPKYAGYSFEKLFPDVLFPADSEHNKLKASQARDLLSKMLVIDASKRISVDEALQHPYINVWYDPSEAEAPPPKIPDKQLDEREHTIEEWKELIYKEVMDLEERTKNGVIRGQPSPLGAAVINGSQHPSSSSSVNDVSSMSTDPTLASDTDSSLEAAAGPLGCCR

What was measured:
Test in all cases: FP
[1] = molecular target: p38α (as used in the fluorescence polarization titrations) (human, UniProt Q16539 1-360)
[2] = molecular target: ERK2 (as used in the fluorescence polarization titrations) (human, UniProt P28482 1-360)
[3] = molecular target: B1
[4] = molecular target: GAB3+ peptide

Kd [1] [µM] | Kd [2] [µM] | Kd [3] [µM] | Kd [4] [µM] | Binder
24.5 | 14.4 |  |  | KEKSGSLKLRIP (not fully specified) [CCNT2 peptide]
74.6 |  | 3.5 |  | RPTRLSL (not fully specified) [IRS1 peptide]
8.9 | 15 |  |  | KKIQPKLSLT (not fully specified) [JAZF1 peptide]
 |  | 16.4 |  | RPTTLPL (not fully specified) [PDE4B peptide]
 |  | 15.9 |  | RPTSLAL (not fully specified) [MYO9B peptide]
 | 84.7 | 19.3 |  | RPQDLNL (not fully specified) [MKP5 peptide]
8.2 | 17.5 |  |  | KRRSLRVHIP (not fully specified) [AAKG2 peptide]
 |  | 21.1 |  | DPLHPTL (also: non-native Glu flanks added at both ends, number not given here) [ATF7 peptide]
 |  |  | 13.2 | B1
 | 31.8 | 5.1 |  | RPKSLQL (not fully specified) [DOCK5 peptide]
5.2 | 22.6 | 14.5 |  | RHRDKRLSLNLP (not fully specified) [GAB3 peptide]
4.9 | 13.5 | 24.7 |  | KKKSKPLNLKIH (not fully specified) [KSR2 peptide]
 | 51.2 | 7.3 |  | RPASLNL (not fully specified) [DOCK7 peptide]
 |  | 10.8 |  | RPKSLNL (not fully specified) [APBA2 peptide]
29.5 |  | 16.7 |  | RKHKDLYLPL (not fully specified) [DCX peptide]
1.2 |  |  |  | LQRKKPPWLKLDIP (not fully specified) [RHDF1 peptide]
